According to patent US20210290759A1 (BRAVOVAX, published 2021):

How the values were obtained:
[1] = biological target: TLR-5 receptor on THP-1 cells (UniProt O60602); assay: cell-based or functional assay
[2] = biological target: TLR-5 receptor on THP-1 cells (UniProt O60602 21-858); assay: cell-based or functional assay
Chain of TLR-5 receptor on THP-1 cells (UniProt O60602 21-858) (O60602 21-858 limits assumed): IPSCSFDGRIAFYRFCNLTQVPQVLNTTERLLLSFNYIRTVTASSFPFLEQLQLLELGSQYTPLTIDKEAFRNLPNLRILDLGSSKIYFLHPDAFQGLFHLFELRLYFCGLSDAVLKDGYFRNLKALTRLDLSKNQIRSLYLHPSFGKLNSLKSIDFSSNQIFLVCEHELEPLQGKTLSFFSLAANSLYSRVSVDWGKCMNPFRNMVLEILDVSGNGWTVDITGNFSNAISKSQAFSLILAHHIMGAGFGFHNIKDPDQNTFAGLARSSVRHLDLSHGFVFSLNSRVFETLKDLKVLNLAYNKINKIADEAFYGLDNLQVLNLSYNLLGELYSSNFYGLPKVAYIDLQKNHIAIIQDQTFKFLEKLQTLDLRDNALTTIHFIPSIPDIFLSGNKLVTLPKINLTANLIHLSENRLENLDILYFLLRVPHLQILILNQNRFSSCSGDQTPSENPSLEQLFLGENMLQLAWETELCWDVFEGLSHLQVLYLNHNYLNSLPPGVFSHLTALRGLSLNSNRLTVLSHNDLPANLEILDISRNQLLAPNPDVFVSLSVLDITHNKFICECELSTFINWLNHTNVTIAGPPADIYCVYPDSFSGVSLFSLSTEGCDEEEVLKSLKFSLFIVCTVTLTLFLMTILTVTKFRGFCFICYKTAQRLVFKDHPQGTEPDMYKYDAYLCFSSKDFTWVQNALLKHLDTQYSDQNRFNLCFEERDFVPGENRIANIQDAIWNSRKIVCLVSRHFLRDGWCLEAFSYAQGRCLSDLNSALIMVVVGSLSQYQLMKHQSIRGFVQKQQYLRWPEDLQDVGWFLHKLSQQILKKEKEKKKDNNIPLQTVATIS

Chain of TLR-5 receptor on THP-1 cells (UniProt O60602) (O60602 21-858 limits assumed): as above

## endotoxin-free flagellin protein (Alpha Diagnostic) (ligand)
[1]
  IL-8 content in THP-1 supernatant, stimulation at 2.5 ug/mL: 19.6 ng
  In vitro relative potency (%), IL-8: 100%
  In vitro relative potency (%), TNF-α: 100%
  TNF-α content in THP-1 supernatant, stimulation at 2.5 ug/mL: 969 pg

B1: recombinant VZV gE protein (gE extracellular region), expressed in eukaryotic cells from recombinant adenovirus (other)
chain: SVLRYDDFHIDEDKLDTNSVYEPYYHSDHAESSWVNRGESSRKAYDHNSPYIWPRNDYDGFLENAHEHHGVYNQGRGIDSGERLMQPTQMSAQEDLGDDTGIHVIPTLNGDDRHKIVNVDQRQYGDVFKGDLNPKPQGQRLIEVSVEENHPFTLRAPIQRIYGVRYTETWSFLPSLTCTGDAAPAIQHICLKHTTCFQDVVVDVDCAENTKEDQLAEISYRFQGKKEADQPWIVVNTSTLFDELELDPPEIEPGVLKVLRTEKQYLGVYIWNMRGSDGTSTYATFLVTWKGDEKTRNPTPAVTPQPRGAEFHMWNYHSHVFSVGDTFSLAMHLQYKIHEAPFDLLLEWLYVPIDPTCQPMRLYSTCLYHPNAPQCLSHMNSGCTFTSPHLAQRVASTVYQNCEHADNYTAYCLGISHMEPSFGLILHDGGTTLKFVDTPESLSGLYVFVVYFNGHVEAVAYTVVSTVDHFVNAIEERGFPPTAGQPPATTKPKEITPVNPGTSPLIR
[2]
  IL-8 content in THP-1 supernatant, stimulation at 5 ug/mL: 0 ng
  In vitro relative potency (%), IL-8: 0%
  In vitro relative potency (%), TNF-α: 0%
  TNF-α content in THP-1 supernatant, stimulation at 5 ug/mL: 0 pg

B2: ASF fusion protein (N-terminal D0-D1-gE-C-terminal D1-D0, LT2) (other)
chain: AQVINTNSLSLLTQNNLNKSQSALGTAIERLSSGLRINSAKDDAAGQAIANRFTANIKGLTQASRNANDGISIAQTTEGALNEINNNLQRVRELAVQSANSTNSQSDLDSIQAEITQRLNEIDRVSGQTQFNGVKVLAQDNTLTIQVGANDGETIDIDLKQINSQTLGLDTLNVQGGGGSGGGGSGGGGSSVLRYDDFHIDEDKLDTNSVYEPYYHSDHAESSWVNRGESSRKAYDHNSPYIWPRNDYDGFLENAHEHHGVYNQGRGIDSGERLMQPTQMSAQEDLGDDTGIHVIPTLNGDDRHKIVNVDQRQYGDVFKGDLNPKPQGQRLIEVSVEENHPFTLRAPIQRIYGVRYTETWSFLPSLTCTGDAAPAIQHICLKHTTCFQDVVVDVDCAENTKEDQLAEISYRFQGKKEADQPWIVVNTSTLFDELELDPPEIEPGVLKVLRTEKQYLGVYIWNMRGSDGTSTYATFLVTWKGDEKTRNPTPAVTPQPRGAEFHMWNYHSHVFSVGDTFSLAMHLQYKIHEAPFDLLLEWLYVPIDPTCQPMRLYSTCLYHPNAPQCLSHMNSGCTFTSPHLAQRVASTVYQNCEHADNYTAYCLGISHMEPSFGLILHDGGTTLKFVDTPESLSGLYVFVVYFNGHVEAVAYTVVSTVDHFVNAIEERGFPPTAGQPPATTKPKEITPVNPGTSPLIRGGGGSGGGGSGGGGSKAQPDLAEAAATTTENPLQKIDAALAQVDTLRSDLGAVQNRFNSAITNLGNTVNNLTSARSRIEDSDYATEVSNMSRAQILQQAGTSVLAQANQVPQNVLSLLR
[2]
  IL-8 content in THP-1 supernatant, stimulation at 5 ug/mL: 27.8 ng
  In vitro relative potency (%), IL-8: 142%
  In vitro relative potency (%), TNF-α: 104%
  TNF-α content in THP-1 supernatant, stimulation at 5 ug/mL: 1000 pg

B3: ANF fusion protein (N-terminal D0-D1-C terminal D1-D0-gE, LT2) (other)
chain: AQVINTNSLSLLTQNNLNKSQSALGTAIERLSSGLRINSAKDDAAGQAIANRFTANIKGLTQASRNANDGISIAQTTEGALNEINNNLQRVRELAVQSANSTNSQSDLDSIQAEITQRLNEIDRVSGQTQFNGVKVLAQDNTLTIQVGANDGETIDIDLKQINSQTLGLDTLNVQSPGISGGGGGILDSMGKAQPDLAEAAATTTENPLQKIDAALAQVDTLRSDLGAVQNRFNSAITNLGNTVNNLTSARSRIEDSDYATEVSNMSRAQILQQAGTSVLAQANQVPQNVLSLLRGGGGSGGGGSGGGGSSVLRYDDFHIDEDKLDTNSVYEPYYHSDHAESSWVNRGESSRKAYDHNSPYIWPRNDYDGFLENAHEHHGVYNQGRGIDSGERLMQPTQMSAQEDLGDDTGIHVIPTLNGDDRHKIVNVDQRQYGDVFKGDLNPKPQGQRLIEVSVEENHPFTLRAPIQRIYGVRYTETWSFLPSLTCTGDAAPAIQHICLKHTTCFQDVVVDVDCAENTKEDQLAEISYRFQGKKEADQPWIVVNTSTLFDELELDPPEIEPGVLKVLRTEKQYLGVYIWNMRGSDGTSTYATFLVTWKGDEKTRNPTPAVTPQPRGAEFHMWNYHSHVFSVGDTFSLAMHLQYKIHEAPFDLLLEWLYVPIDPTCQPMRLYSTCLYHPNAPQCLSHMNSGCTFTSPHLAQRVASTVYQNCEHADNYTAYCLGISHMEPSFGLILHDGGTTLKFVDTPESLSGLYVFVVYFNGHVEAVAYTVVSTVDHFVNAIEERGFPPTAGQPPATTKPKEITPVNPGTSPLIR
[2]
  IL-8 content in THP-1 supernatant, stimulation at 5 ug/mL: 10.8 ng
  In vitro relative potency (%), IL-8: 55.3%
  In vitro relative potency (%), TNF-α: 57%
  TNF-α content in THP-1 supernatant, stimulation at 5 ug/mL: 552 pg

B4: ACF fusion protein (gE-N-terminal D0-D1-C-terminal D1-D0, LT2) (other)
chain: SVLRYDDFHIDEDKLDTNSVYEPYYHSDHAESSWVNRGESSRKAYDHNSPYIWPRNDYDGFLENAHEHHGVYNQGRGIDSGERLMQPTQMSAQEDLGDDTGIHVIPTLNGDDRHKIVNVDQRQYGDVFKGDLNPKPQGQRLIEVSVEENHPFTLRAPIQRIYGVRYTETWSFLPSLTCTGDAAPAIQHICLKHTTCFQDVVVDVDCAENTKEDQLAEISYRFQGKKEADQPWIVVNTSTLFDELELDPPEIEPGVLKVLRTEKQYLGVYIWNMRGSDGTSTYATFLVTWKGDEKTRNPTPAVTPQPRGAEFHMWNYHSHVFSVGDTFSLAMHLQYKIHEAPFDLLLEWLYVPIDPTCQPMRLYSTCLYHPNAPQCLSHMNSGCTFTSPHLAQRVASTVYQNCEHADNYTAYCLGISHMEPSFGLILHDGGTTLKFVDTPESLSGLYVFVVYFNGHVEAVAYTVVSTVDHFVNAIEERGFPPTAGQPPATTKPKEITPVNPGTSPLIRGGGGSGGGGSGGGGSAQVINTNSLSLLTQNNLNKSQSALGTAIERLSSGLRINSAKDDAAGQAIANRFTANIKGLTQASRNANDGISIAQTTEGALNEINNNLQRVRELAVQSANSTNSQSDLDSIQAEITQRLNEIDRVSGQTQFNGVKVLAQDNTLTIQVGANDGETIDIDLKQINSQTLGLDTLNVQSPGISGGGGGILDSMGKAQPDLAEAAATTTENPLQKIDAALAQVDTLRSDLGAVQNRFNSAITNLGNTVNNLTSARSRIEDSDYATEVSNMSRAQILQQAGTSVLAQANQVPQNVLSLLR
[2]
  IL-8 content in THP-1 supernatant, stimulation at 5 ug/mL: 6.41 ng
  In vitro relative potency (%), IL-8: 32.7%
  In vitro relative potency (%), TNF-α: 11.6%
  TNF-α content in THP-1 supernatant, stimulation at 5 ug/mL: 112 pg
